{"source": "patent US20200207859A1", "about": "(priority 2017, published 2020)", "molecules": {"B1": {"name": "Conjugate A: anti-CD74 IgG with pAMF at heavy chain EU position 404 conjugated to DBCO-PEG4-maytansine (conjugate)", "VH": "QVQLVESGGGVVQPGRSLRLSCAASGFNFSDYGMHWVRQAPGKGLEWVAVIWYDGSISYYADSVKGRFTISRDNSKNTLYLQMNSLRAEDTAVYYCARGGTVEHGAVYGTDVWGQGTTVTVSS", "VL": "DIQMTQSPSSVSASVGDRVTITCRASQGIGSWLAWYQQKPGKAPKLLIYAADRLQSGVPSRFSGSGSGTDFTLTISSLQPEDFATYYCQQYHTYPLTFGGGTKVEIK", "modifications": "non-natural residues"}}, "key": {"SU-DHL-6 NHL tumors": {"test_system": "SU-DHL-6 NHL tumors", "experiment": "Subcutaneous SU-DHL-6 non-Hodgkin's lymphoma model", "format": "in vivo, mouse", "settings": "CB17 SCID mice, s.c. SU-DHL-6, 10 mg/kg q7dx3 IV", "experimental": "Female CB17 SCID mice 9 weeks of age were anesthetized with isoflurane and implanted subcutaneously into the right flank with a 1:1 mixture of SU-DHL-6 cells and matrigel. Randomization, enrollment into treatment groups, and start of treatment was initiated approximately 14 days post implantation. Treatment groups are outlined in Table 6. All test articles were formulated in 10 mM citrate pH 6.0, 9% sucrose and diluted in PBS. Body weight and tumor size were monitored twice per week until mean of control treated tumors were >1000 mm^3 or end of study. Animal body weights included the tumor weight. Percent body weight change (BWC) is calculated relative to weight on the day of treatment. No samples were collected at the end of study.\nTumor size on day 18 post-tumor implantation (last day control animals were on study) was analyzed using a one-way analysis of variance (ANOVA) with Dunnett's multiple comparison test. A probability of less than 5% (p<0.05) was considered as significant."}, "K562 (CML)": {"test_system": "K562 (CML)", "experiment": "Cell killing assay (cell proliferation, Cell Titer-Glo)", "format": "cell-based", "parameters": "key to Cell Killing Activity Span: NK = no killing; NB = no binding", "settings": "72 hrs", "experimental": "(§1) Cytotoxicity effects of the free drug linkers and conjugates were measured with a cell proliferation assay. A total of 12500 cells in a volume of 25 μl were seeded in a 384-well flat bottom white polystyrene plate on the day of assay. Free drug-linkers and conjugates were formulated at 2× starting concentration (1000 nM for free drug linkers and 100 nM for ADCs) in RPMI medium and filtered through MultiScreen HTS 96-Well Filter Plates (Millipore). Filter sterilized samples were serial diluted (1:3) under sterile conditions and added into treatment wells. Plates were cultured at 37° C. in a CO2 incubator for 72 hrs. For cell viability measurement, 30 μl of Cell Titer-Glo® reagent (Promega Corp.) was added into each well, and plates processed as per product instructions. Relative luminescence was measured on an ENVISION® plate reader (Perkin-Elmer; Waltham, Mass.). Relative luminescence readings were converted to % viability using untreated cells as controls. Data was fitted with non-linear regression analysis, using log(inhibitor) vs. response, variable slope, 4 parameter fit equation using GraphPad Prism. Data was expressed as % relative cell viability vs. dose of free drug-linker or conjugate in nM."}, "RPMI-8226 (MM)": {"test_system": "RPMI-8226 (MM)", "experiment": "Cell killing assay (cell proliferation, Cell Titer-Glo)", "format": "cell-based", "parameters": "key to Cell Killing Activity Span: NK = no killing; NB = no binding", "settings": "72 hrs", "experimental": "as §1"}, "OPM-2 (MM)": {"test_system": "OPM-2 (MM)", "experiment": "Cell killing assay (cell proliferation, Cell Titer-Glo)", "format": "cell-based", "parameters": "key to Cell Killing Activity Span: NK = no killing; NB = no binding", "settings": "72 hrs", "experimental": "as §1"}, "[1]": {"test_system": "MM.1S multiple myeloma cells", "experiment": "Disseminated MM.1S multiple myeloma model", "format": "in vivo, mouse", "settings": "NSG mice; for survival: MM.1S i.v., day 129 post inoculation; for tumor burden: hCD138+ myeloma cells in the bone marrow / hCD138+ cells in the bone marrow: MM.1S; for tumor burden: hCD138+ myeloma cells in the bone marrow: day 32; for hCD138+ cells in the bone marrow: day 129", "experimental": "Female NOD SCID gamma (NSG) mice 8 weeks of age were inoculated with multiple myeloma MM.1S cells into the tail vein. Randomization by body weight and start of treatment was initiated 11 days post tumor inoculation. Treatment groups are outlined in Table 5. Test articles were formulated in 10 mM citrate, pH 6.0, 10% sucrose and diluted in PBS for administration. […] For each group, a subset of animals was used for bone marrow harvest and analysis (n=3) and the remaining animals (n=5) were monitored for survival. Survival endpoint was characterized by >20% body weight loss and clinical signs including lethargy, hind limb paralysis or moribundity. On day 32 (3 weeks after start of treatment), 3 animals from each group were randomly chosen to be euthanized for bone marrow harvest (pooled from tibia and femur) for flow cytometry. On day 129 (˜4 months after start of treatment), all surviving animals were euthanized and bone marrow was harvested (pooled from tibia and femur) for flow cytometry.\nBody weights were monitored at least twice per week for up to 129 days. All graphs are presented as mean±standard error of the mean (SEM) versus days post-treatment start.\nPercent body weight change (BWC) is calculated relative to weight on the day of treatment. Substantial toxicity was defined as a >20% decrease in animal weight, at which point affected animals are euthanized.\nBone marrow cells from mouse femur and tibia were pooled and assessed for human CD138 expression using the Alexa Fluor 647 mouse anti-human CD138 clone MI15 (BD Biosciences #562097) according to the manufacturer's protocol. CD138 is a specific surface antigen for MM and plasma cells in the bone marrow (Chilosi, M. et al. (1999), supra). Direct immunofluorescence flow cytometric analysis was performed using an LSRII flow cytometer and FACS Diva Software. Data was analyzed using Flowjo (Tree Star, Inc., Ashland, Oreg.).\nHuman CD138+ cells in the bone marrow on day 32 was analyzed using one-way analysis of variance (ANOVA) with a Dunnett's adjustment at 0.05 significance level. Data from MM.1 s positive control were excluded from analysis. A probability of less than 5% (p<0.05) was considered as significant."}, "My-La T lymphoma cells": {"test_system": "My-La T lymphoma cells", "experiment": "T lymphoma cell line cell killing assay", "format": "cell-based", "settings": "120 hours", "experimental": "(§2) A total of 12500 cells in a volume of 25 μL were seeded in a 384-well flat bottom white polystyrene plate the day before the assay. […] Filter-sterilized compounds were serial diluted in culture medium and 25 μL of the compounds were added into treatment wells in quadruplicates. Plates were cultured at 37° C. in a CO2 incubator for 120 hours. For cell viability measurement, 30 μL of Cell Titer-Glo® reagent (Promega Corp.; Madison, Wis.) was added into each well, and plates were processed per product instructions. Relative luminescence was measured on an ENVISION® plate reader (Perkin-Elmer; Waltham, Mass.). Relative luminescence readings were converted to percent (%) viability using untreated cells as controls. Data was fitted with non-linear regression analysis, using log(inhibitor) vs. response, variable slope, 4-parameter fit equation using GraphPad Prism (GraphPad v 5.00, Software; San Diego, Calif.). Data was expressed as percent (%) relative cell viability (average of the quadruplicates) vs. dose of compounds in units of nanomolar (nM). Cell killing EC50 values and span were calculated by Prism in order to evaluate the potency of each compound on each cell line."}, "HH T lymphoma cells": {"test_system": "HH T lymphoma cells", "experiment": "T lymphoma cell line cell killing assay", "format": "cell-based", "settings": "120 hours", "experimental": "as §2"}, "HuT-78 T lymphoma cells": {"test_system": "HuT-78 T lymphoma cells", "experiment": "T lymphoma cell line cell killing assay", "format": "cell-based", "settings": "HuT-78, 120 hours", "experimental": "as §2"}}, "data": [{"molecule": "B1", "values": [{"measurement": "Average final tumor size on day 18", "setting": "SU-DHL-6 NHL tumors", "result": 291, "unit": "mm^3"}, {"measurement": "tolerability (effects on animal body weights)", "setting": "SU-DHL-6 NHL tumors", "result": "well tolerated"}, {"measurement": "tumor growth inhibition compared to control", "setting": "SU-DHL-6 NHL tumors; day 18", "result": "~80", "unit": "%"}, {"measurement": "Cell Killing Activity Span", "setting": "K562 (CML)", "result": "NK"}, {"measurement": "IC50", "setting": "K562 (CML)", "result": "> 50", "unit": "nM"}, {"measurement": "Cell Killing Activity Span", "setting": "RPMI-8226 (MM)", "result": "NK"}, {"measurement": "IC50", "setting": "RPMI-8226 (MM)", "result": "> 50", "unit": "nM"}, {"measurement": "Cell Killing Activity Span", "setting": "OPM-2 (MM)", "result": "NK"}, {"measurement": "IC50", "setting": "OPM-2 (MM)", "result": "> 50", "unit": "nM"}, {"measurement": "survival", "setting": "[1]; 3 mg/kg q7dx3 IV", "result": 100, "unit": "%"}, {"measurement": "survival", "setting": "[1]; 10 mg/kg q7dx3 IV", "result": 100, "unit": "%"}, {"measurement": "tumor burden: hCD138+ myeloma cells in the bone marrow", "setting": "[1]; 3 mg/kg q7dx3 IV", "result": "significantly reduced tumor burden"}, {"measurement": "hCD138+ cells in the bone marrow", "setting": "[1]; 3 mg/kg q7dx3 IV", "result": "no hCD138+ cells were detected"}, {"measurement": "tumor burden: hCD138+ myeloma cells in the bone marrow", "setting": "[1]; 10 mg/kg q7dx3 IV", "result": "significantly reduced tumor burden"}, {"measurement": "hCD138+ cells in the bone marrow", "setting": "[1]; 10 mg/kg q7dx3 IV", "result": "no hCD138+ cells were detected"}, {"measurement": "Cell killing Span", "setting": "My-La T lymphoma cells", "result": 73, "unit": "%"}, {"measurement": "EC50", "setting": "My-La T lymphoma cells", "result": 0.54, "unit": "nM"}, {"measurement": "cell killing activity (in words)", "setting": "My-La T lymphoma cells", "result": "potent cell killing activity"}, {"measurement": "Cell killing Span", "setting": "HH T lymphoma cells", "result": 77, "unit": "%"}, {"measurement": "EC50", "setting": "HH T lymphoma cells", "result": 0.22, "unit": "nM"}, {"measurement": "cell killing activity (in words)", "setting": "HH T lymphoma cells", "result": "potent cell killing activity"}, {"measurement": "Cell killing Span", "setting": "HuT-78 T lymphoma cells", "result": 72, "unit": "%"}, {"measurement": "EC50", "setting": "HuT-78 T lymphoma cells", "result": 0.59, "unit": "nM"}, {"measurement": "cell killing activity (in words)", "setting": "HuT-78 T lymphoma cells", "result": "potent cell killing activity"}]}]}
